Assay results as given in patent US20100015650.

T1: BRB1 tyrosine kinase substrate peptide
T1 chain: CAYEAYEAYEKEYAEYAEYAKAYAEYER

B1: FLT1 (protein)
chain: RKMKRSSSEIKTDYLSIIMDPDEVPLDEQCERLPYDASKWEFARERLKLGKSLGRGAFGKVVQASAFGIKKSPTCRTVAVKMLKEGATASEYKALMTELKILTHIGHHLNVVNLLGACTKQGGPLMVIVEYCKYGNLSNYLKSKRDLFFLNKDAALHMEPKKEKMEPGLEQGKKPRLDSVTSSESFASSGFQEDKSLSDVEEEEDSDGFYKEPITMEDLISYSFQVARGMEFLSSRKCIHRDLAARNILLSENNVVKICDFGLARDIYKNPDYVRKGDTRLPLKWMAPESIFDKIYSTKSDVWSYGVLLWEIFSLGGSPYPGVQMDEDFCSRLREGMRMRAPEYSTPEIYQIMLDCWHRDPKERPRFAELVEKLGDLLQANVQQDGKDYIPINAILTGNSGFTYSTPAFSEDFFKESISAPKFNSGSSDDVRYVNAFKFMSLERIKTFEELLPNATSMFDDYQGDSSTLLASPMLKRFTWTDSKPKASLKIDLRVTSKSKESGLSDVSRPSFCHSSCGHVSEGKRRFTYDHAELERKIACCSPPPDYNSVVLYSTPPI
B2: FLT4 (protein)
chain: MRRPAHADIKTGYLSIIMDPGEVPLEEQCEYLSYDASQWEFPRERLHLGRVLGYGAFGKVVEASAFGIHKGSSCDTVAVKMLKEGATASEHRALMSELKILIHIGNHLNVVNLLGACTKPQGPLMVIVEFCKYGNLSNFLRAKRDAFSPCAEKSPEQRGRFRAMVELARLDRRRPGSSDRVLFARFSKTEGGARRASPDQEAEDLWLSPLTMEDLVCYSFQVARGMEFLASRKCIHRDLAARNILLSESDVVKICDFGLARDIYKDPDYVRKGSARLPLKWMAPESIFDKVYTTQSDVWSFGVLLWEIFSLGASPYPGVQINEEFCQRLRDGTRMRAPELATPAIRRIMLNCWSGDPKARPAFSELVEILGDLLQGRGLQEEEEVCMAPRSSQSSEEGSFSQVSTMALHIAQADAEDSPPSLQRHSLAARYYNWVSFPGCLARGAETRGSSRMKTFEEFPMTPTTYKGSVDNQTDSGMVLASEEFEQIESRHRQESGFS
B3: FGFR4 (protein)
chain: RGQALHGRHPRPPATVQKLSRFPLARQFSLESGSSGKSSSSLVRGVRLSSSGPALLAGLVSLDLPLDPLWEFPRDRLVLGKPLGEGCFGQVVRAEAFGMDPARPDQASTVAVKMLKDNASDKDLADLVSEMEVMKLIGRHKNIINLLGVCTQEGPLYVIVECAAKGNLREFLRARRPPGPDLSPDGPRSSEGPLSFPVLVSCAYQVARGMQYLESRKCIHRDLAARNVLVTEDNVMKIADFGLARGVHHIDYYKKTSNGRLPVKWMAPEALFDRVYTHQSDVWSFGILLWEIFTLGGSPYPGIPVEELFSLLREGHRMDRPPHCPPELYGLMRECWHAAPSQRPTFKQLVEALDKVLLAVSEEYLDLRLTFGPYSPSGGDASSTCSSSDSVFSHDPLPLGSSSFPFGSGVQT
B4: FLT3 (protein)
chain: HKYKKQFRYESQLQMVQVTGSSDNEYFYVDFREYEYDLKWEFPRENLEFGKVLGSGAFGKVMNATAYGISKTGVSIQVAVKMLKEKADSSEREALMSELKMMTQLGSHENIVNLLGACTLSGPIYLIFEYCCYGDLLNYLRSKREKFHRTWTEIFKEHNFSFYPTFQSHPNSSMPGSREVQIHPDSDQISGLHGNSFHSEDEIEYENQKRLEEEEDLNVLTFEDLLCFAYQVAKGMEFLEFKSCVHRDLAARNVLVTHGKVVKICDFGLARDIMSDSNYVVRGNARLPVKWMAPESLFEGIYTIKSDVWSYGILLWEIFSLGVNPYPGIPVDANFYKLIQNGFKMDQPFYATEEIYIIMQSCWAFDSRKRPSFPNLTSFLGCQLADAEEAMYQNVDGRVSECPHTYQNRRPFSREMDLGLLSPQAQVEDS
B5: FGFR2 (protein)
chain: RMKNTTKKPDFSSQPAVHKLTKRIPLRRQVTVSAESSSSMNSNTPLVRITTRLSSTADTPMLAGVSEYELPEDPKWEFPRDKLTLGKPLGEGCFGQVVMAEAVGIDKDKPKEAVTVAVKMLKDDATEKDLSDLVSEMEMMKMIGKHKNIINLLGACTQDGPLYVIVEYASKGNLREYLRARRPPGMEYSYDINRVPEEQMTFKDLVSCTYQLARGMEYLASQKCIHRDLAARNVLVTENNVMKIADFGLARDINNIDYYKKTTNGRLPVKWMAPEALFDRVYTHQSDVWSFGVLMWEIFTLGGSPYPGIPVEELFKLLKEGHRMDKPANCTNELYMMMRDCWHAVPSQRPTFKQLVEDLDRILTLTTNEEYLDLSQPLEQYSPSYPDTRSSCSSGDDSVFSPDPMPYEPCLPQYPHINGSVKT
B6: EphB4 (protein)
chain: LCLRKQSNGREAEYSDKHGQYLIGHGTKVYIDPFTYEDPNEAVREFAKEIDVSYVKIEEVIGAGEFGEVCRGRLKAPGKKESCVAIKTLKGGYTERQRREFLSEASIMGQFEHPNIIRLEGVVTNSMPVMILTEFMENGALDSFLRLNDGQFTVIQLVGMLRGIASGMRYLAEMSYVHRDLAARNILVNSNLVCKVSDFGLSRFLEENSSDPTYTSSLGGKIPIRWTAPEAIAFRKFTSASDAWSYGIVMWEVMSFGERPYWDMSNQDVINAIEQDYRLPPPPDCPTSLHQLMLDCWQKDRNARPRFPQVVSALDKMIRNPASLKIVARENGGASHPLLDQRQPHYSAFGSVGEWLRAIKMGRYEESFAAAGFGSFELVSQISAEDLLRIGVTLAGHQKKILASVQHMKSQAKPGTPGGTGGPAPQY
B7: FGFR3 (protein)
chain: RLRSPPKKGLGSPTVHKISRFPLKRQVSLESNASMSSNTPLVRIARLSSGEGPTLANVSELELPADPKWELSRARLTLGKPLGEGCFGQVVMAEAIGIDKDRAAKPVTVAVKMLKDDATDKDLSDLVSEMEMMKMIGKHKNIINLLGACTQGGPLYVLVEYAAKGNLREFLRARRPPGLDYSFDTCKPPEEQLTFKDLVSCAYQVARGMEYLASQKCIHRDLAARNVLVTEDNVMKIADFGLARDVHNLDYYKKTTNGRLPVKWMAPEALFDRVYTHQSDVWSFGVLLWEIFTLGGSPYPGIPVEELFKLLKEGHRMDKPANCTHDLYMIMRECWHAAPSQRPTFKQLVEDLDRVLTVTSTDEYLDLSAPFEQYSPGGQDTPSSSSSGDDSVFAHDLLPPAPPSSGGSRT
B8: FMS (CSFR) (protein)
chain: KYKQKPKYQVRWKIIESYEGNSYTFIDPTQLPYNEKWEFPRNNLQFGKTLGAGAFGKVVEATAFGLGKEDAVLKVAVKMLKSTAHADEKEALMSELKIMSHLGQHENIVNLLGACTHGGPVLVITEYCCYGDLLNFLRRKAEAMLGPSLSPGQDPEGGVDYKNIHLEKKYVRRDSGFSSQGVDTYVEMRPVSTSSNDSFSEQDLDKEDGRPLELRDLLHFSSQVAQGMAFLASKNCIHRDVAARNVLLTNGHVAKIGDFGLARDIMNDSNYIVKGNARLPVKWMAPESIFDCVYTVQSDVWSYGILLWEIFSLGLNPYPGILVNSKFYKLVKDGYQMAQPAFAPKNIYSIMQACWALEPTHRPTFQQICSFLQEQAQEDRRERDYTNLPSSSRSGGSGSSSSELEEESSSEHLTCCEQGDIAQPLLQPNNYQFC

Biological target: T1, BRB1 tyrosine kinase substrate peptide

| Protein | Signal to Noise ratio with BRB1 Peptide (TR-FRET kinase assay; kinase 0.25 nM) | other results |
| --- | --- | --- |
| B1 | 4.1 | – |
| B2 | 20 | – |
| B3 | – | Signal to Noise Ratio with BRB1 Peptide (TR-FRET kinase assay; kinase 3 nM): 17.7 |
| B4 | – | Signal to Noise ratio with BRB1 Peptide (TR-FRET kinase assay; kinase 0.1 nM): 25.9 |
| B5 | 27.1 | – |
| B6 | – | Signal to Noise ratio with BRB1 Peptide (TR-FRET kinase assay; kinase 0.5 nM): 29.8 |
| B7 | 24.4 | – |
| B8 | 3 | – |
